Results: patent US20210214435A1 (MorphoSys, published 2021)
Each block holds one binder with its values, some of them ahead of it.

What was measured:
[1] = biological target: T1, mouse GPVI extracellular domain fused at its C-terminus to human IgG1 Fc (GPVI-Fc) (mouse; human); assay: Competition ELISA (MSD): mouse GPVI-Fc preincubated with Fab, then on coated CRP-XL (competitor)
T1 construct: also called mGPVI; mouse GPVI-Fc
Experimental: (§1) 1 or 10 μg/ml of recombinant GPVI collagen substrate (crosslinked collagen-related peptide (CRP-XL (Anaspec, Inc.), rat-tail collagen (Enzo Life Sciences) or VitroCol (Advanced BioMatrix, Inc.) was coated on a MSD-plate over night at 4° C., washed with PBST, blocked for 1 h at RT with PBS supplemented with 0.05% Tween-20 and 3% skim milk powder, and subsequently washed again with PBST. Purified recombinant GPVI antigens (human, cynomolgus monkey or mouse GPVI as prepared in Example 1) diluted in PBS and varying concentrations of Fab (comprising a modified heavy chain constant region) diluted in PBS (final concentration range 200-0.3 μg/ml) were incubated in a polypropylene plate for 30 min at RT. Fab/GPVI-Fc mixture was added to coated collagen substrate for 1 h at RT. After washing with PBST, bound GPVI form different species was detected using an ECL-conjugated detection antibody directed against human Fc (Jackson Immuno Research) for 1 h at RT. MSD read buffer (Meso Scale Discovery) was added prior to readout in a Sector Imager6000 (Meso Scale Discovery).

[2] = biological target: T2, cynomolgus monkey GPVI extracellular domain fused at its C-terminus to human IgG1 Fc (GPVI-Fc) (cynomolgus monkey; human); assay: ELISA, coated GPVI-Fc, Fab titrated
T2 construct: also called cyGPVI-2; cyGPVI
Experimental: (§2) 0.5-2 nM of recombinant GPVI-Fc-fusion proteins (as described in Example 1) were coated overnight on Maxisorp microtiter plates at 4° C. […] Following washing with PBST, Fabs (comprising a modified heavy chain constant region) serially diluted to concentrations in the range of 600 nM to 1 pM in PBST with 5% skim milk powder (MPBST) were added for 1 h at RT. Plates were washed with PBST. Bound Fab was detected using an alkaline phosphatase-conjugated detection antibody (Jackson Immuno Research) diluted in MPBST and directed against human F(ab′)2 fragment. After washing with TBS supplemented with 0.05% Tween-20 (TBST), AttoPhos substrate (Roche) diluted in ddH2O was added and fluorescence intensity measured at a Tecan Infinite 200Pro reader. EC50 values were calculated using Prism 5 software (GraphPad).

[3] = biological target: T3, human GPVI-2A extracellular domain fused at its C-terminus to human IgG1 Fc (GPVI-Fc) (human); assay: ELISA, coated GPVI-Fc, Fab titrated
T3 construct: Isoform 2, haplotype 'a'; also called hGPVI-2a
Experimental: as §2

[4] = biological target: T1, mouse GPVI extracellular domain fused …; assay: ELISA, coated GPVI-Fc, Fab titrated
Experimental: as §2

[5] = biological target: T4, rat GPVI extracellular domain fused at its C-terminus to human IgG1 Fc (GPVI-Fc) (rat; human); assay: ELISA, coated GPVI-Fc, Fab titrated
T4 construct: also called rGPVI
Experimental: as §2

[6] = biological target: T5, human GPVI-1A extracellular domain fused at its C-terminus to human IgG1 Fc (GPVI-Fc) (human); assay: ELISA, coated GPVI-Fc, Fab titrated
T5 construct: also called hGPVI-1a; hGPVI
Experimental: as §2

[7] = biological target: T6, human GPVI-1B extracellular domain fused at its C-terminus to human IgG1 Fc (GPVI-Fc) (human); assay: ELISA, coated GPVI-Fc, Fab titrated
T6 construct: Low frequency haplotype 'b'; also called hGPVI-lb; hGPVI-1b
Experimental: as §2

[8] = biological target: T7, human GPVI (full-length) expressed on stably transfected rat basophilic RBL-2H3 cells (human, UniProt Q9HCN6 21-339); assay: cell-based or functional assay
T7 sequence (looked up): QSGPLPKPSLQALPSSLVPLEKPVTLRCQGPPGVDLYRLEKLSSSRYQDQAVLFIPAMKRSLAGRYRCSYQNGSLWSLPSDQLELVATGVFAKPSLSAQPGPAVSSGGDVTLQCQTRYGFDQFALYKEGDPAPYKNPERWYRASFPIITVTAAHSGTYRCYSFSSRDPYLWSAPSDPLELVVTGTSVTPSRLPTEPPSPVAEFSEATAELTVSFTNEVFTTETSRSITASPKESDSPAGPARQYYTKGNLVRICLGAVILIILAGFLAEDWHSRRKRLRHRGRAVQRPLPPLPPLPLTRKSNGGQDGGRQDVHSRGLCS

[9] = biological target: T8, mouse GPVI on the cell surface of mouse platelets (mouse, UniProt P0C191 22-313); assay: FACS on washed murine platelets from PRP (one exemplary donor), PE-conjugated detection antibody, median fluorescence
T8 construct: whole, on cells; also called GPVI on murine platelets
T8 sequence (looked up): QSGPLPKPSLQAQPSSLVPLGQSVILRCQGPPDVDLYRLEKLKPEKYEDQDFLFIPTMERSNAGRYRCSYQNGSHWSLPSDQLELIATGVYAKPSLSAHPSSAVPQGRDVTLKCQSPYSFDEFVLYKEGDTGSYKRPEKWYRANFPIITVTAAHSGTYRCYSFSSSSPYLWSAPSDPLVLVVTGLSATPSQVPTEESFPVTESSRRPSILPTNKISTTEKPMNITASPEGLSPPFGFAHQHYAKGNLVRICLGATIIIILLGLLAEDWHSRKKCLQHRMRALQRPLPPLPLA
Experimental: Platelet-rich plasma (PRP) from up to 4 donors was prepared by centrifugation of citrated whole blood for 15 min at 150×g without brake. The resulting supernatant was transferred as PRP into a new sample tube without disturbing the underlying leukocyte-rich interphase. After careful washing in Tyrode's buffer supplemented with Prostacyclin 1₂ (PGI2; Epoprostenol-Rotexmedica), platelets were resuspended in Tyrode's/PGI2 and transferred to 96 well V-bottom microtiter plates. Platelets were spiked with Fab (comprising a modified heavy chain constant region) diluted to final concentrations between 0.015-30 μg/ml in Tyrode's/PGI2 and incubated for 30 min at RT. Platelets were carefully washed to remove non-bound Fab and then incubated for 30 min at RT with a Phycoerythrine (PE)-conjugated detection antibody (Jackson ImmunoResearch). After incubation for 30 min at RT, platelets were analyzed by flow cytometry in a FACS Canto II (Becton Dickinson). In the case of Fab directly conjugated with PE (FIG. 1D), incubation with detection antibody was omitted. Data was evaluated using FACS Diva software (Becton Dickinson). EC50 values were calculated using Prism 5 software (GraphPad).

[10] = biological target: T1, mouse GPVI extracellular domain fused …; assay: Competition ELISA (MSD): mouse GPVI-Fc preincubated with Fab, then on coated VitroCol (competitor)
Experimental: as §1

T4 sequence (chain, as listed by the source limits assumed): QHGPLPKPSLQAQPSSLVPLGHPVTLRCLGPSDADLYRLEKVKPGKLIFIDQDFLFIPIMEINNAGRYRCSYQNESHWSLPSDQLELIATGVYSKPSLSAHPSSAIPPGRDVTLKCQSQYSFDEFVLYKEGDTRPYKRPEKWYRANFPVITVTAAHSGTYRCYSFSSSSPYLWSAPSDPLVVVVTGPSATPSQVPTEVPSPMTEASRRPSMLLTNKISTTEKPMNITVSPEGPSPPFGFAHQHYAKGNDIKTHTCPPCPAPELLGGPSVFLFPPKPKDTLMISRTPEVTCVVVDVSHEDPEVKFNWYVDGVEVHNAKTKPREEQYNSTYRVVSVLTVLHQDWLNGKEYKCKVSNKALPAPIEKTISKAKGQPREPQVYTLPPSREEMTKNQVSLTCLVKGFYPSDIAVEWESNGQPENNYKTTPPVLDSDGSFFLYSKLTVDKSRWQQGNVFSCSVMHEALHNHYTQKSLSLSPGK
T1 sequence (chain, as listed by the source limits assumed): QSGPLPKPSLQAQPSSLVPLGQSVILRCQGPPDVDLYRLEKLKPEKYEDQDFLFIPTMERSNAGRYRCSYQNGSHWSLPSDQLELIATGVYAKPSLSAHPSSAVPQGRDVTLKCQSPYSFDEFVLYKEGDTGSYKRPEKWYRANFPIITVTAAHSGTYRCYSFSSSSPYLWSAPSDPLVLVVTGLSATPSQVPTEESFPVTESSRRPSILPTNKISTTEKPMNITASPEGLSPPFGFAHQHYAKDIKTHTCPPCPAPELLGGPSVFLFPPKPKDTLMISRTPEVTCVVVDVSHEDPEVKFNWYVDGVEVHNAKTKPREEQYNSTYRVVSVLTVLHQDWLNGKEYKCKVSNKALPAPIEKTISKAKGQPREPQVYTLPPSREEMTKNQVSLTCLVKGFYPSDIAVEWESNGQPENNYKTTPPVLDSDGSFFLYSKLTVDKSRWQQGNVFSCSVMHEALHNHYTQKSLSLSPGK
T2 sequence (chain, as listed by the source limits assumed): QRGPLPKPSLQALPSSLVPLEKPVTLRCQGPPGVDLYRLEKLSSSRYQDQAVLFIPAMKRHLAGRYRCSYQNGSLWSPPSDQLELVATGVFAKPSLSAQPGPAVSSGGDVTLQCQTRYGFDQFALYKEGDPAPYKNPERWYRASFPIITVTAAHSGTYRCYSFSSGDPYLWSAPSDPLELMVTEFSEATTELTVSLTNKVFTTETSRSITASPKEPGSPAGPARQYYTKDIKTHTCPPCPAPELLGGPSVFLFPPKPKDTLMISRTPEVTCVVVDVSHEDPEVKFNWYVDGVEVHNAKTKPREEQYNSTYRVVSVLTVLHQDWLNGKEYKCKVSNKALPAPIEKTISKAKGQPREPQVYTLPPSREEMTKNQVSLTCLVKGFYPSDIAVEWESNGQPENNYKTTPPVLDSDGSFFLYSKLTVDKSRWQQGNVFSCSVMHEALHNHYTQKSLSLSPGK
T5 sequence (chain, as listed by the source limits assumed): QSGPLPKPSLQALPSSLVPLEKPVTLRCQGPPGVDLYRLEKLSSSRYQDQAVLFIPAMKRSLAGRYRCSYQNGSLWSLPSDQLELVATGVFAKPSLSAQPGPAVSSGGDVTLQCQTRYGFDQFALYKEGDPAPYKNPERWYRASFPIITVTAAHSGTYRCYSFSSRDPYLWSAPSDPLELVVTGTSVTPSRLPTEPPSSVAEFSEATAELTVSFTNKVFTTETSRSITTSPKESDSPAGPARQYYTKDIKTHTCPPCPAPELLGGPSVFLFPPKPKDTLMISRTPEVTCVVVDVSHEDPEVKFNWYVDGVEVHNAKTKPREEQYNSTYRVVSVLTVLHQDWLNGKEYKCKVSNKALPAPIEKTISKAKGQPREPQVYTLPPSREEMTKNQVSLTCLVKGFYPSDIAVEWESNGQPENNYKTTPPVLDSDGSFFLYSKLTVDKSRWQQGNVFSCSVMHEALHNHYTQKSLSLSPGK
T6 sequence (chain, as listed by the source limits assumed): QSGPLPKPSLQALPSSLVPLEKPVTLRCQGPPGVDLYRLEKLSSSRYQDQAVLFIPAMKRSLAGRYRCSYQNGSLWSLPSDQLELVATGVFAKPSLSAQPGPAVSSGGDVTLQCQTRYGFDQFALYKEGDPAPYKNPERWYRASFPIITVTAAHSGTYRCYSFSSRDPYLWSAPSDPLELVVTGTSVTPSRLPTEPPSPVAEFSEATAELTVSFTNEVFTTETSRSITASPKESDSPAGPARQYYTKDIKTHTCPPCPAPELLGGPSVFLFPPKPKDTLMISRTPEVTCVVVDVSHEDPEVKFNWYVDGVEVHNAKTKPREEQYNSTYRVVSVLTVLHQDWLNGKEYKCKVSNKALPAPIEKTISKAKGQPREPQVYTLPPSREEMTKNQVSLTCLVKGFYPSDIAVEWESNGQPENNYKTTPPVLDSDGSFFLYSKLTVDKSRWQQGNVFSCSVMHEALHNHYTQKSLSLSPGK
T3 sequence (chain, as listed by the source limits assumed): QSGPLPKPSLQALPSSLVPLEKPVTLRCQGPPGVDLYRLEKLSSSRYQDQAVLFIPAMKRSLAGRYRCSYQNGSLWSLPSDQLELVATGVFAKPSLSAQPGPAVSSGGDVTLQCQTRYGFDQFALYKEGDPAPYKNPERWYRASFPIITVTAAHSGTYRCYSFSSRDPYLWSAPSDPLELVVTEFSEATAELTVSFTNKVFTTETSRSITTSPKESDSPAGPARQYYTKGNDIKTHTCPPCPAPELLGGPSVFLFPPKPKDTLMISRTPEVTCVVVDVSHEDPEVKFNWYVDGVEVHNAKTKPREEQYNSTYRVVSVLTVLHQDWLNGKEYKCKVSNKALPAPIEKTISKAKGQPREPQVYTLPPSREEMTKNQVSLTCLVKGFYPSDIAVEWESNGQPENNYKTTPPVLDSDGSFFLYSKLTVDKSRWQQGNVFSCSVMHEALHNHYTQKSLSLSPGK

- IC50 [1]: 10.6 nM
- Max. inhibition at 200 nM Fab [%] [1]: 67%
- EC50 [2]: 0.5 nM
- EC50 [3]: 0.74 nM
- EC50 [4]: 1 nM
- EC50 [5]: 9.32 nM
- EC50 [6]: 0.41 nM
- EC50 [7]: 0.48 nM
- Cell adhesion assay IC50 [nM], coated VitroCol [8]: 0.57 nM
- Cell adhesion assay Max. inhibition at 200 nM Fab [%], coated VitroCol [8]: 59%
- EC50 (read off the curve) [9]: ~0.2 µg/mL
- IC50 [10]: 6.7 nM
- Max. inhibition at 200 nM Fab [%] [10]: 94%
B1: Fab #4 comprising a modified heavy chain constant region (Fab, V domains shown)
VH: QVQLVQSGAEVKKPGASVKVSCKASGGAFTSSYMHWVRQAPGQGLEWMGIIEPTGASTLYAQRFQGRVTMTRDTSTSTVYMELSSLRSEDTAVYYCARTGIALPLGFDLWGQGTLVTVSS
VL: QSVLTQPPSVSAAPGQKVTISCSGSSSNIGNNYVSWYQQLPGTAPKLLIYDNNKRPSGIPDRFSGSKSGTSATLGITGLQTEDEADYYCAAWSTRFRWVFGGGTKLTVLG
notes: Human Fab from the Ylanthia library; produced in HKB11 cells; also called Fab #4 mod; HC

- EC50 [2]: 0.58 nM
- EC50 [3]: 1.43 nM
- EC50 [6]: 0.93 nM
- EC50 [7]: 1 nM
- Cell adhesion assay IC50 [nM], coated CRP-XL [8]: 2.69 nM
- Cell adhesion assay IC50 [nM], coated VitroCol [8]: 1.17 nM
- Cell adhesion assay Max. inhibition at 200 nM Fab [%], coated CRP-XL [8]: 100%
- Cell adhesion assay Max. inhibition at 200 nM Fab [%], coated VitroCol [8]: 92%
B2: Reference Control Antibody RefFab #1 (humanized GPVI antibody of WO2011073954A2, SANOFI) (Fab, V domains shown)
VH: EVQLLESGPGLVAPSGSLSITCTVSGFSLTGYGVNWVRQPPGKGLEWLGMIWGDGSTDYQSTLKSRLSISKDNSKSQVFLKMNSLRTDDTARYYCARDLPMDYWGLGTSVTVSS
VL: DIQMTQSPSSLSASVGGRVTITCKASQDINKYIAWYQHKPGKGPSLLIHYTSTLQPGVPSRFSGSGSGRDYSFSISNLQPEDIATYYCLQYANLLTFGGGTKLEIKR
notes: Cloned into mammalian Fab expression vectors; a glycine-serine linker (G4S)2 was added to the C-terminus of the Fab heavy chain

- IC50 [1]: 12 nM
- Max. inhibition at 200 nM Fab [%] [1]: 99%
- EC50 [2]: 0.42 nM
- EC50 [3]: 0.65 nM
- EC50 [4]: 6.55 nM
- EC50 [5]: 53.1 nM
- EC50 [6]: 0.41 nM
- EC50 [7]: 0.45 nM
- Cell adhesion assay IC50 [nM], coated CRP-XL [8]: 1.59 nM
- Cell adhesion assay IC50 [nM], coated VitroCol [8]: 0.89 nM
- Cell adhesion assay Max. inhibition at 200 nM Fab [%], coated CRP-XL [8]: 100%
- Cell adhesion assay Max. inhibition at 200 nM Fab [%], coated VitroCol [8]: 93%
- EC50 (read off the curve) [9]: ~0.5 µg/mL
- IC50 [10]: 4.3 nM
- Max. inhibition at 200 nM Fab [%] [10]: 99%
B3: Fab #2 comprising a modified heavy chain constant region (Fab, V domains shown)
VH: QVQLVESGGGLVKPGGSLRLSCAASGFSFSDHYMSWIRQAPGKGLEWVSSVGSEGKFIDYAASVKGRFTISRDNAKNSLYLQMNSLRAEDTAVYYCARHYREFRWHYYYFDYWGQGTLVTVSS
VL: QSVLTQPPSVSGAPGQRVTISCTGSSSNIGAGYDVHWYQQLPGTAPKLLIYGNSNRPSGVPDRFSGSKSGTSASLAITGLQAEDEADYYCQSHDLGAHVWVFGGGTKLTVLG
notes: Human Fab from the Ylanthia library; produced in HKB11 cells; also called Fab #2 mod; HC

- IC50 [1]: 8.1 nM
- Max. inhibition at 200 nM Fab [%] [1]: 100%
- EC50 [2]: 0.37 nM
- EC50 [3]: 0.48 nM
- EC50 [4]: 1.36 nM
- EC50 [5]: 9.65 nM
- EC50 [6]: 0.35 nM
- EC50 [7]: 0.39 nM
- Cell adhesion assay IC50 [nM], coated CRP-XL [8]: 1.81 nM
- Cell adhesion assay IC50 [nM], coated VitroCol [8]: 0.84 nM
- Cell adhesion assay Max. inhibition at 200 nM Fab [%], coated CRP-XL [8]: 100%
- Cell adhesion assay Max. inhibition at 200 nM Fab [%], coated VitroCol [8]: 91%
- EC50 (read off the curve) [9]: ~0.3 µg/mL
- IC50 [10]: 3.3 nM
- Max. inhibition at 200 nM Fab [%] [10]: 100%
B4: Fab #3 comprising a modified heavy chain constant region (Fab, V domains shown)
VH: QVQLVESGGGLVKPGGSLRLSCAASGFSFGDYYVSWIRQAPGKGLEWVSAIGGSGSAVQYAESVKGRFTISRDNAKNSLYLQMNSLRAEDTAVYYCARHYREFRWHYYYFDYWGQGTLVTVSS
VL: B3 VL
notes: Human Fab from the Ylanthia library; produced in HKB11 cells; also called Fab #3 mod; HC

- IC50 [1]: 26.4 nM
- Max. inhibition at 200 nM Fab [%] [1]: 77%
- EC50 [2]: 0.53 nM
- EC50 [3]: 0.93 nM
- binding result [5]: binds
- EC50 [6]: 0.46 nM
- EC50 [7]: 0.66 nM
- Cell adhesion assay IC50 [nM], coated VitroCol [8]: 0.58 nM
- Cell adhesion assay Max. inhibition at 200 nM Fab [%], coated VitroCol [8]: 55%
- EC50 (read off the curve) [9]: ~3 µg/mL
- IC50 [10]: 9.1 nM
- Max. inhibition at 200 nM Fab [%] [10]: 96%
B5: Fab #1 comprising a modified heavy chain constant region (Fab, V domains shown)
VH: QVQLVQSGAEVKKPGASVKVSCKASGYTFTSHYMHWVRQAPGQGLEWMGLIEPSEGETEYAQRFQGRVTMTRDTSTSTVYMELSSLRSEDTAVYYCARDSSRSYPLGFDIWGQGTLVTVSS
VL: QSVLTQPPSVSAAPGQKVTISCSGSSSNIGNNYVSWYQQLPGTAPKLLIYDNNKRPSGIPDRFSGSKSGTSATLGITGLQTEDEADYYCAAWDFRSSRWVFGGGTKLTVLG
notes: Human Fab from the Ylanthia library; produced in HKB11 cells; also called Fab #1 mod; HC
